Measured values: patent publication US20220249628

Biological target: full length recombinant von Willebrand factor, P04275

B1: recombinant ADAMTS13 (A Disintegrin And Metalloproteinase with Thrombospondin type 1 motif, member-13) (protein)
chain: AAGGILHLELLVAVGPDVFQAHQEDTERYVLTNLNIGAELLRDPSLGAQFRVHLVKMVILTEPEGAPNITANLTSSLLSVCGWSQTINPEDDTDPGHADLVLYITRFDLELPDGNRQVRGVTQLGGACSPTWSCLITEDTGFDLGVTIAHEIGHSFGLEHDGAPGSGCGPSGHVMASDGAAPRAGLAWSPCSRRQLLSLLSAGRARCVWDPPRPQPGSAGHPPDAQPGLYYSANEQCRVAFGPKAVACTFAREHLDMCQALSCHTDPLDQSSCSRLLVPLLDGTECGVEKWCSKGRCRSLVELTPIAAVHGRWSSWGPRSPCSRSCGGGVVTRRRQCNNPRPAFGGRACVGADLQAEMCNTQACEKTQLEFMSQQCARTDGQPLRSSPGGASFYHWGAAVPHSQGDALCRHMCRAIGESFIMKRGDSFLDGTRCMPSGPREDGTLSLCVSGSCRTFGCDGRMDSQQVWDRCQVCGGDNSTCSPRKGSFTAGRAREYVTFLTVTPNLTSVYIANHRPLFTHLAVRIGGRYVVAGKMSISPNTTYPSLLEDGRVEYRVALTEDRLPRLEEIRIWGPLQEDADIQVYRRYGEEYGNLTRPDITFTYFQPKPRQAWVWAAVRGPCSVSCGAGLRWVNYSCLDQARKELVETVQCQGSQQPPAWPEACVLEPCPPYWAVGDFGPCSASCGGGLRERPVRCVEAQGSLLKTLPPARCRAGAQQPAVALETCNPQPCPARWEVSEPSSCTSAGGAGLALENETCVPGADGLEAPVTEGPGSVDEKLPAPEPCVGMSCPPGWGHLDATSAGEKAPSPWGSIRTGAQAAHVWTPAAGSCSVSCGRGLMELRFLCMDSALRVPVQEELCGLASKPGSRREVCQAVPCPARWQYKLAACSVSCGRGVVRRILYCARAHGEDDGEEILLDTQCQGLPRPEPQEACSLEPCPPRWKVMSLGPCSASCGLGTARRSVACVQLDQGQDVEVDEAACAALVRPEASVPCLIADCTYRWHVGTWMECSVSCGDGIQRRRDTCLGPQAQAPVPADFCQHLPKPVTVRGCWAGPCVGQGTPSLVPHEEAAAPGRTTATPAGASLEWSQARGLLFSPAPQPRRLLPGPQENSVQSSACGRQHLEPTGTIDMRGPGQADCAVAIGRPLGEVVTLRVLESSLNCSAGDMLLLWGRLTWRKMCRKLLDMTFSSKTNTLVVRQRCGRPGGGVLLRYGSQLAPETFYRECDMQLFGPWGEIVSPSLSPATSNAGGCRLFINVAPHARIAIHALATNMGAGTEGANASYILIRDTHSLRTTAFHGQQVLYWESESSQAEMEFSEGFLKAQASLRGQYWTLQSWVPEMQDPQSWKGKEGT
With B1 the “176 kDa dimeric VWF cleavage fragment (VWF immunoblot, vortex-based assay, no hemoglobin)” value was “Control reactions with 0.25 U/mL, 0.5 U/mL, and 1 U/mL rADAMTS13 in absence of hemoglobin showed a dose-dependent increase of the 176 kDa dimeric VWF cleavage fragment”, the “ADAMTS13-mediated VWF cleavage in the presence of hemoglobin (176 kDa fragment, densitometry)” value was “rADAMTS13 has a dose-dependent potency to overcome the inhibitory effect of hemoglobin on VWF cleavage” and the “cleavage of rVWF after pre-incubation of hemoglobin and rVWF (176 kDa fragment, densitometry)” value was “rADAMTS13 supplemented after a pre-incubation time of hemoglobin and rVWF was capable to cleave VWF”.
